Data from patent US20260069728A1, “MULTI-TARGETING COMPOUND AND USE THEREOF” (Chengdu Shetai Medical Technology Co., Ltd., priority 2023, published 2026).
Where two headings read alike, the source gives them in different places. *1 amine or outer side, *2 acyl side, *3 side chain or, on linkers, in order; H or OH if unused. Where a SMILES comes first, the peptide text is derived from it. Bridges are numbered along the chain shown (N, C = ends). [ ]: non-standard residue; d: D form. The star is where a group is joined. X1 = N#C[C@@H]1CC(F)(F)CN1C(=O)CNC(=O)c1ccnc2ccc(OCCCN3CCN(*)CC3)cc12; DOTA = O=C(O)CN1CCN(CC(=O)O)CCN(CC(=O)*)CCN(CC(=O)O)CC1; 2Nal = N[C@@H](Cc1ccc2ccccc2c1)C(=O)O; Cit = NC(=O)NCCC[C@H](N)C(=O)O; Suc = O=C(CCC(=O)[*:2])[*:1]; AEEA = NCCOCCOCC(=O)O

Assay: Stability of radioligands in PBS buffer (radio-HPLC)
Assay type: physicochemical
[1] = PBS buffer pH=7.4, 37° C., 0.5 hours
[2] = PBS buffer pH=7.4, 37° C., 1 hour
[3] = PBS buffer pH=7.4, 37° C., 2 hours

Structure (SMILES)	stability in PBS buffer (in words)	radiochemical purity after incubation in PBS [1]	radiochemical purity after incubation in PBS [2]	radiochemical purity after incubation in PBS [3]	stability in PBS buffer (in words) (PBS buffer pH=7.4, 37° C.)
N#C[C@@H]1CC(F)(F)CN1C(=O)CNC(=O)c1ccnc2ccc(OCCCN3CCN(C(=O)CCC(=O)N[C@@H](CCCCNC(=O)CN4CCN(CC(=O)O)CCN(CC(=O)O)CCN(CC(=O)O)CC4)C(=O)NCCOCCOCC(=O)NCCOCCOCC(=O)N[C@@H](CCCNC(=N)N)C(=O)N[C@@H](CCCNC(=N)N)C(=O)N[C@@H](Cc4ccc5ccccc5c4)C(=O)N[C@H]4CSSC[C@@H](C(=O)N[C@@H](CCCNC(=N)N)C(N)=O)NC(=O)[C@H](CCCNC(N)=O)NC(=O)[C@H](CCCNC(=N)N)NC(=O)[C@H](Cc5ccc(O)cc5)NC(=O)[C@@H]5CCCN5C(=O)[C@H](CCCCN)NC(=O)[C@H](CCCCN)NC(=O)[C@H](CCCNC(N)=O)NC(=O)[C@H](Cc5ccc(O)cc5)NC4=O)CC3)cc12 [^68Ga-SDYD01, metal not drawn] ({X1-Suc}-K(DOTA)[AEEA][AEEA]RR[2Nal]CY[Cit]KKPYR[Cit]CR-NH2; disulfide 7-16)	quite stable in PBS buffer	98%	97%	97%	
CCCCCC(=O)N[C@H]1CSCc2cc(CSCCNC(=O)[C@H](CCCCNC(=O)CN3CCN(CC(=O)O)CCN(CC(=O)O)CCN(CC(=O)O)CC3)NC(=O)COCCOCCNC(=O)COCCOCCNC(=O)CCN3C(=O)CC(SCCNC(=O)CCC(=O)NCc4ccc(NC(=O)COCC(=O)N[C@H](Cc5ccccc5)C(=O)N[C@@H](CCC(N)=O)C(=O)N[C@@H](Cc5c[nH]c6ccccc56)C(=O)N[C@@H](C)C(=O)N[C@H](C(=O)NCC(=O)N[C@@H](Cc5c[nH]cn5)C(=O)NC(CC(C)C)CC(C)C)C(C)C)cc4)C3=O)cc(c2)CSC[C@@H](C(=O)O)NC(=O)[C@H](Cc2ccccc2)NC(=O)[C@H](CCC(N)=O)NC(=O)C([C@@H](C)O)NC(=O)[C@@H]2CCCN2C(=O)[C@@H]2CCCN2C1=O (some centres unmarked) [^68Ga-SDYD04, metal not drawn]		97%	97%	95%	quite stable in PBS buffer
